Test results taken from patent US20230071609A1 (Genentech, published 2023).
Residue numbers refer to the chain shown, from its start.

T1: endogenous human APOL1 (wild-type immortalized podocytes; also JHH-1 cells, kidney and liver tissue) (human, UniProt O14791 28-398)
T1 construct: whole, on cells; Cell or tissue and permeabilization are told under assay; also called podocyte APOL1; endogenous APOL1
T1 sequence (looked up): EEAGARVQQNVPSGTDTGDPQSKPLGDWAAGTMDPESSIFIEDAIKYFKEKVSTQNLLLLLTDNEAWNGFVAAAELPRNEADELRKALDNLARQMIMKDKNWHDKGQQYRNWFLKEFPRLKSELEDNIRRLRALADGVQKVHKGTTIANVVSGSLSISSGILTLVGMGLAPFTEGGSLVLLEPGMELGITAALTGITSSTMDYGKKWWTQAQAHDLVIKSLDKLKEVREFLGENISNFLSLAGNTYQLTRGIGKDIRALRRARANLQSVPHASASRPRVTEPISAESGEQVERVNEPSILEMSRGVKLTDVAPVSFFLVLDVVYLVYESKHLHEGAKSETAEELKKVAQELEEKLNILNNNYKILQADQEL

T2: APOL6-myc-FLAG (human, UniProt Q9BWW8 1-343)
T2 construct: whole, on cells; In fixed, permeabilized transfected COS cells; untagged APOL6 in the western blots; not shown: C-terminal myc-FLAG tag
T2 sequence (looked up): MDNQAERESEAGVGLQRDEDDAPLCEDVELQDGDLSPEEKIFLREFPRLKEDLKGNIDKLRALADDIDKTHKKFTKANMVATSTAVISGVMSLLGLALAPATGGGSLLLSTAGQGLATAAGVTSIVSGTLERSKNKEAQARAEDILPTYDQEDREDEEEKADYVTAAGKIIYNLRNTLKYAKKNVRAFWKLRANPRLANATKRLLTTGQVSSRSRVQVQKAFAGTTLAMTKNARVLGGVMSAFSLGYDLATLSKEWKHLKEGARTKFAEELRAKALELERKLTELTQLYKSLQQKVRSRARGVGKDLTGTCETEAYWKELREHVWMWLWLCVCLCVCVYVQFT

B1: rabbit monoclonal antibody 5.17D12 (antibody, V domains shown)
VH: QSLEESGGDLVKPGASLTLTCTASGFSFSSNYYMCWVRQAPGKGLEWIACVYVGSGGSTYYASWAKGRFTFSKTSSTTWTLQMTSLTAADTATYFCARDLSYAGDLWGPGTLVTVSS
VL: DPVMTQTPASVSEPVGGTVTINCQASESISSYLAWYQQKPGQPPKLLIYGASNLASGVPSRFKGSGSGTEYTLTISDLECDDAATYYCQSAYYSNSGGHAFGGGTEVVVKG
notes: Rabbit mAb (Method #5), recombinant; also called rabmab 5.17D12
B2: antibody 3.1C1 (antibody, V domains shown)
VH: QVQLQQSGPELVKPGASVRISCKASGYTFTNYFIHWVKQRPGQGLEWIGWINPGNLNTKYTEEFKGKATLTADKSSSTAYIQLNSLTSEDSAVYFCVNGNPFVYWGQGTLVTVSA
VL: DIVMTQSPSSLTVIAGEKVTLNCKSSQSLLNSGNQKKYLTWLQQKPGQPPKLLIYWTSTRDSGVPDRFTGSGSGTDFTLTISSVQAEDLAVYYCQNDYSYPLTFGAGTKLEIKR
notes: Mouse mAb, cloned as murine IgG2a LALAPG; not written separately; also called SRA-ID mAb 3.1C1
B3: antibody 3.6E10 (antibody, V domains shown)
VH: QVQLQQSGAELAKPGASVKMSCKASGYIFTSYYLHWVKQRPGQGLEWIGYINPNTGYTEYTQNFKDRATLTADKSSSTAYMQLTSLTSEDSAVYFCVNGNPFVYWGQGTLVTVSA
VL: B2 VL with I14T, A15T, L21M, N22T, K24R, K37N, L42F, D61Y
notes: Mouse mAb, cloned as murine IgG2a LALAPG
B4: antibody 4.12E5 (antibody, V domains shown)
VH: EVQLQQSGPELVKTGASVKISCKASGYSFTGYFMHWVKQSHGKSLEWIGYISCYNGASVYNQRFKGKATFTIDTSSSTAYMQFNSLTSEDSAVYYCARDVLRYPRYAVDYWGQGTSVTVSS
VL: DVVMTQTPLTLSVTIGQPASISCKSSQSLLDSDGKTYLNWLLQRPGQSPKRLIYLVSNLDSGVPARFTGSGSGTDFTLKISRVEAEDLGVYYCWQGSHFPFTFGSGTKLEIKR
notes: as for B3
B5: antibody 4.17A5 (antibody, V domains shown)
VH: QVQLQQSGPELLKPGASVKISCKGSGYAFSNSWINWVKLRPGQGLEWIGRIYPGDGDTKYNGKFKGKATLTADKSSSTAHMQLRSLTSVDSAVYFCARFPFGKYEGPGAMDYWGQGTSVTVSS
VL: DIQMTQTTSSLSASLGDRVTISCRASQDISSYLNWYQQKPDGTIKLLIYYTSRLHSGVPSRFSGSGSGTDFSLTISNLEQEDIATYFCQQGNTLPYTFGGGTKLEIKR
notes: Mouse mAb (Method #4), cloned as murine IgG2a LALAPG; also called mAb 4.17A5
B6: antibody 3.7D6 (antibody, V domains shown)
VH: QIQLVQSGPDLKKPGETVKISCRTSGYAFTNYGVNWVKQAPGKGLKWMGWINTNTGQTTYAEEFRGRFAISLETSASTAFLTISNLKNEDSATYFCARLIYDGDYISSDFWGQGTTLTVSS
VL: DIQMTQSPDSLSASVGETVTITCGASENIYGALNWYQRKQGKSPQLLIYGATNLADGMSSRFSGSRSGRQYSLKISSLHPDDVATYYCQNALSMPYTFGGGTKLEIKR
notes: Mouse mAb, cloned as murine IgG2a LALAPG; those versions are not written separately; also called PFD antibody 3.7D6
B7: antibody 3.6D12 (antibody, V domains shown)
VH: EVMLVESGGGLVRPGGSLKLSCTASGFTFSRCAMSWVRQTPEKRLEWVSAISRDSTYTYYSDSVKGRFTVSRDNAKNTLYLQMSSLRSEDTAMYYCARQIDDYYVDALDYWGQGTSVTVSS
VL: DVQITQSPSYLAASPGETITINCRASKIISKYLAWYQEKPGKTIKLLIYSGFTLQSGIPSRFSGSGSGTDFTLTISSLEPEDFAMYYCQQHNEYPLTFGAGTKLEIKR
notes: Mouse mAb (Method #3), cloned as murine IgG2a LALAPG; Early screens used hybridoma-purified antibody; also called mAb 3.6D12

Biological target: T1, endogenous human APOL1 (wild-type …)
Test: summary of the Examples: podocyte flow cytometry
Method: (§1) Cells were harvested with 5 mM EDTA in PBS, washed once with growth media and twice with PBS. Approximately 0.5×10⁶/m1 of cells resuspended in PBS were incubated with anti-APOL1 antibodies for 1 h on ice. Following two PBS washes, 2 μg/ml of Alexa488 anti-mouse or anti-rabbit (Invitrogen A11029 and A21206, respectively) was used for 1 h on ice for detection. Cells were washed twice in PBS and resuspended in PBS with 1 μg/ml propidium iodide. Signals were read in a FACSCalibur3 (Becton Dickinson), with the exception of FIG. 8A and FIG. 14, which used a FACSCelesta, and data was analyzed using FlowJo v8.4.5. Mean fluorescence intensities were plotted in PRISM v7 after subtraction of secondary antibody alone background. For low pH experiments, cells were incubated with the antibodies in the presence of PBS pH 7.0 or PBS pH 5.5 for an hour on ice and detected with secondary antibodies at neutral pH.

Binder | binding result
B1 | binds
B2 | binds
B3 | binds
B4 | binds

Biological target: T1, endogenous human APOL1 (wild-type …)
Test: flow cytometry, live WT and iAPOL1-G0 podocytes
Method: as §1
More importantly, there were also differential APOL1 accessibilities between serum APOL1 and kidney disease-relevant podocytes (FIG. 18B). Some antibodies bound surface APOL1 in WT and iAPOL1 podocytes (FIG. 6A, 6B), but not circulating APOL1 (as judged by lack of trypanolytic blockade, FIG. 6C) and vice versa. […] Conversely, 3.3B6 and 4.17A5 were among the top trypanolytic blockers, but recognized the podocyte surface relatively weakly. […]

Binder | binding result
B5 | binds

Biological target: T2, APOL6-myc-FLAG
Test: immunofluorescence on transfected COS cells; grade
From the text: COS cells were transfected as in FIG. 31A except APOL1 and APOL2 were also C-terminally myc-FLAG tagged. Overlays of APOL with epitope tags: either mouse anti-FLAG-M2 or mouse anti-myc 9E10 for anti-APOL1 rabmabs; or rabbit anti-Myc 71D10 in conjunction with mouse anti-APOL1. Signals indicate the two antibodies overlap (i.e. anti-APOL1 cross-reacts with that APOL); signals (epitope tag only) indicate no cross-reactivity. Alexa647 anti-rabbit or mouse were used for the tags to rule out the possibility that any colocalization was a bleed-through artifact. Sparsely transfected areas were imaged to permit evaluation of background staining in adjacent untransfected cells—DAPI nuclear staining identifies both untransfected and transfected cell nuclei. […] Note that none of the antibodies cross-reacted with the more distantly related APOL6. *, APOL2-myc-FLAG is presumably misfolded, since it is not as cross-reactive as untagged APOL2 (compare FIG. 31A) with several antibodies. Commercial antibodies are Sigma HPA018885, Epitomics EPR2907 (2) (Epito) and Proteintech 11486-2-AP (Ptech).
Cells were plated on LabTekII (Nalge Nunc 154534) slides and fixed at 70-100% confluency. For mAb screening, cells were fixed/permeabilized for 5 min in −20° C. methanol (EMD MX0485-6). For all other experiments, cells were fixed in 3% paraformaldehyde in PBS (EMS 15710) for 20 mins at room temperature, quenched with 50 mM NH₄Cl in PBS for 10 mins, then permeabilized with 0.1% TX-100 in PBS for 4 mins or for 1h in saponin buffer [0.4% saponin (Sigma S7900), 1% bovine serum albumin (BSA; Sigma A2153), 2% fetal bovine serum (Seradigm) in PBS]. First antibodies (stored sterile at 4° C.) were applied for 1 h at room temperature, at 1 μg/ml for screening on transfected cells or at subsequently optimized concentrations for detecting endogenous APOL1. After 3×10 min washes in PBS (for Methanol or TX-100 protocols) or saponin buffer (saponin protocol), secondary antibodies were applied at 1.88 μg/ml for 1 h at room temperature, washed 3× and mounted under No. 1.5 coverslips in ProLong Gold with DAPI (4′,6-diamidino-2-phenylindole; Life Technologies P36931).

Binder | binding result
B6 | no binding (tested: 1 µg/ml)
B1 | no binding (tested: 1 µg/ml)
B5 | no binding (tested: 1 µg/ml)
B7 | no binding (tested: 1 µg/ml)
B2 | no binding (tested: 1 µg/ml)
B3 | no binding (tested: 1 µg/ml)
